Earlier results, collected in article PMC6995517.

Target: transferrin receptor (TfR) (Homo sapiens) (UniProt P02786)
Sequence (P02786 89-760): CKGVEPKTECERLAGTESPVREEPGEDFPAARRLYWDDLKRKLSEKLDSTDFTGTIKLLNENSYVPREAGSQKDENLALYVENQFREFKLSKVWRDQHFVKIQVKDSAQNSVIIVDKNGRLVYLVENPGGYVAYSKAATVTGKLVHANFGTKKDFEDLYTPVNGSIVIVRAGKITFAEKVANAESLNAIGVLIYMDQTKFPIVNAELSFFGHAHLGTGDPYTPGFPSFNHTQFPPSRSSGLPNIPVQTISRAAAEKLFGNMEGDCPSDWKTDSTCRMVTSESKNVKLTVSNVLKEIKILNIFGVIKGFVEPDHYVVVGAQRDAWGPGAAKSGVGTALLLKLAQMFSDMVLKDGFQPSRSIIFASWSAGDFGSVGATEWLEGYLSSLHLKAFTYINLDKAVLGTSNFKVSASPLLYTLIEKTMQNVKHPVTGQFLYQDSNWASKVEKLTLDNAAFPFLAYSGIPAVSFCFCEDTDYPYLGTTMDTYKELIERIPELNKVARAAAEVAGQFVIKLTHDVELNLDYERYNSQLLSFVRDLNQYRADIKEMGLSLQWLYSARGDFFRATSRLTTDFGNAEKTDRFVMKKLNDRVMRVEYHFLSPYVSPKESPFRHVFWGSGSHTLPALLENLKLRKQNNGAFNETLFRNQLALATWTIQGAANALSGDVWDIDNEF

## T7 peptide
  Kd: 10 nM
